Assay results from patent US20240082313A1, “PHARMACEUTICAL COMPOSITIONS AND THEIR METHODS OF USE” (The Trustees of Indiana University, priority 2021, published 2024).

B1: vinculin: vinculin recombinant protein (protein, UniProt Q64727 1-1066, looked up)
Vinculin: MPVFHTRTIESILEPVAQQISHLVIMHEEGEVDGKAIPDLTAPVAAVQAAVSNLVRVGKETVQTTEDQILKRDMPPAFIKVENACTKLVQAAQMLQSDPYSVPARDYLIDGSRGILSGTSDLLLTFDEAEVRKIIRVCKGILEYLTVAEVVETMEDLVTYTKNLGPGMTKMAKMIDERQQELTHQEHRVMLVNSMNTVKELLPVLISAMKIFVTTKNSKNQGIEEALKNRNFTVEKMSAEINEIIRVLQLTSWDEDAWASKDTEAMKRALASIDSKLNQAKGWLRDPNASPGDAGEQAIRQILDEAGKVGELCAGKERREILGTCKMLGQMTDQVADLRARGQGASPVAMQKAQQVSQGLDVLTAKVENAARKLEAMTNSKQSIAKKIDAAQNWLADPNGGPEGEEQIRGALAEARKIAELCDDPKERDDILRSLGEIAALTSKLGDLRRQGKGDSPEARALAKQVATALQNLQTKTNRAVANSRPAKAAVHLEGKIEQAQRWIDNPTVDDRGVGQAAIRGLVAEGHRLANVMMGPYRQDLLAKCDRVDQLTAQLADLAARGEGESPQARALASQLQDSLKDLKAQMQEAMTQEVSDVFSDTTTPIKLLAVAATAPPDAPNREEVFDERAANFENHSGRLGATAEKAAAVGTANKSTVEGIQASVKTARELTPQVISAARILLRNPGNQAAYEHFETMKNQWIDNVEKMTGLVDEAIDTKSLLDASEEAIKKDLDKCKVAMANIQPQMLVAGATSIARRANRILLVAKREVENSEDPKFREAVKAASDELSKTISPMVMDAKAVAGNISDPGLQKSFLDSGYRILGAVAKVREAFQPQEPDFPPPPPDLEQLRLTDELAPPKPPLPEGEVPPPRPPPPEEKDEEFPEQKAGEVINQPMMMAARQLHDEARKWSSKGNDIIAAAKRMALLMAEMSRLVRGGSGTKRALIQCAKDIAKASDEVTRLAKEVAKQCTDKRIRTNLLQVCERIPTISTQLKILSTVKATMLGRTNISDEESEQATEMLVHNAQNLMQSVKETVREAEAASIKIRTDAGFTLRWVRKTPWYQ
B2: enolase 1: enolase 1 recombinant protein (protein, UniProt P17182 2-434, looked up)
Alpha-enolase: SILRIHAREIFDSRGNPTVEVDLYTAKGLFRAAVPSGASTGIYEALELRDNDKTRFMGKGVSQAVEHINKTIAPALVSKKVNVVEQEKIDKLMIEMDGTENKSKFGANAILGVSLAVCKAGAVEKGVPLYRHIADLAGNPEVILPVPAFNVINGGSHAGNKLAMQEFMILPVGASSFREAMRIGAEVYHNLKNVIKEKYGKDATNVGDEGGFAPNILENKEALELLKTAIAKAGYTDQVVIGMDVAASEFYRSGKYDLDFKSPDDPSRYITPDQLADLYKSFVQNYPVVSIEDPFDQDDWGAWQKFTASAGIQVVGDDLTVTNPKRIAKAASEKSCNCLLLKVNQIGSVTESLQACKLAQSNGWGVMVSHRSGETEDTFIADLVVGLCTGQIKTGAPCRSERLAKYNQILRIEEELGSKAKFAGRSFRNPLAK

How the values were obtained:
[1] = tested on: EO771 mammary tumor cells; experiment: TRANSWELL invasion assay; type: cell-based, mouse; details: inhibitor applied with iTS CM
Protocol: (§1) Invasion assay. The invasion capacity of cancer cells was determined using a 24-well plate, TRANSWELL® chambers (Thermo Fisher Scientific, Waltham, MA, USA) with […] pore size and MATRIGEL™. Cell invasion was measured in TRANSWELL® chambers with a coating including MATRIGEL™ (100 μg/ml). The cells in 200 μL serum-free DMEM were placed on the upper chamber and 800 μL iTS CM was added in the lower chamber. After 24 h, the cells that had invaded the lower side of the membrane were stained with Crystal Violet. At least five randomly chosen images were taken under a microscope, and the average number of stained cells that represented the relative invasion was determined.

[2] = tested on: EO771 mammary tumor cells; experiment: EdU assay; type: cell-based, mouse; details: inhibitor applied with iTS CM
Protocol: (§2) EdU assays. Two thousand cells were seeded in 96-well plates on day 1, CM was added on day 2, and cellular proliferation was examined using a fluorescence-based cell proliferation kit (CLICK-IT™ EdU ALEXA FLUOR™ 488 Imaging Kit; Thermo-Fisher, Waltham, MA, USA). After fluorescent labeling, the number of fluorescently labeled cells were counted and the ratio to the total number of cells was determined.
(§3) EdU assay. Using a procedure previously reported, approximately 1,000 cells were seeded in 96-well plates on day 1. CM was added on day 2 and cellular proliferation was examined with a fluorescence-based cell proliferation kit (CLICK-IT™ EdU ALEXA FLUOR™ 488 Imaging Kit; Thermo-Fisher, Waltham, MA, USA) on day 4. After fluorescent labeling, the number of fluorescently labeled cells was counted and the ratio to the total number of cells was determined.

adipose-derived MSCs = experiment: MTT-based viability of non-tumor cells; type: cell-based, human
From the text: (§4) Variations in tumor selectivity among the predicted tumor-suppressing proteins. Tumor-suppressing proteins may inhibit the progression of tumor cells but not inhibit the progression of non-tumor cells. Using the MTT-based viability, tumor selectivity was defined as a ratio of (reduction in MTT-based viability of tumor cells) to (reduction in MTT-based viability of non-tumor cells). The tumor selectivity may be above one to remove tumor cells and a larger value may signify a reduction in the inhibition of the growth of non-tumor cells. The tumor selectivity was determined using three tumor cells (4T1.2 mouse mammary tumor cells, EO771 mammary tumor cells, and MDA-MB-231 breast cancer cells) and three non-tumor cells (adipose cells, MLO-A5 osteocytes, and murine MSCs). […] Table 2 provides the tumor selectivity of 4T1.2 Oct4 CM, 4T1.2 c-Myc CM, and 10 tumor-suppressing protein candidates.

[3] = tested on: MDA-MB-231 breast cancer cells; experiment: Tumor selectivity from MTT-based viability (tumor vs non-tumor cells); type: cell-based, human
From the text: as §4

4T1.2 cells [4] = experiment: Western blot analysis; type: cell-based, mouse; details: for level of Kdm3a: 4T1.2 cells; for Lrp5, MMP9, Runx2, TGFβ, and Snail: recombinant protein applied extracellularly to 4T1.2 cells
Protocol: Western blot analysis. Cultured cells were lysed in a radio-immunoprecipitation assay (RIPA) buffer and proteins were fractionated by 10-15% SDS gels and electro-transferred to polyvinylidene difluoride (PVDF) transfer membranes (Millipore, Billerica, MA, USA). The membrane was incubated overnight with primary antibodies and then with secondary antibodies conjugated with horseradish peroxidase (Cell Signaling, Danvers, MA, USA). Antibodies against c-Myc, Oct4, Sox2, Klf4, Lrp5, Runx2, Snail, TGFβ, Eno1, Eef2, vinculin (Cell Signaling, Danvers, MA, USA), MMP9, NFATc1, cathepsin K (Santa Cruz, Dallas, TX, USA), TRAIL (Novus, Centennial, CO, USA), p53 (Invitrogen, Carlsbad, CA, USA), Hsp90ab1 (Abcam, Cambridge, UK), Kdm3a (Thermo-Fisher Scientific, Waltham, MA, USA) and β-actin as a control (Sigma, St. Louis, MO, USA) were employed. The level of proteins was determined using a SUPERSIGNAL™ west femto maximum sensitivity substrate (Thermo-Fisher Scientific, Waltham, MA, USA), and a luminescent image analyzer (LAS-3000, Fuji Film, Tokyo, Japan) was used to quantify signal intensities.

4T1.2 cells [5] = experiment: TRANSWELL invasion assay; type: cell-based, mouse
Protocol: TRANSWELL® invasion assay. In a TRANSWELL® invasion assay, approximately 5×10^4 cells in 200 μL serum-free DMEM were placed on the upper TRANSWELL® chamber (Thermo Fisher Scientific, Waltham, MA, USA) with MATRIGEL™ (100 μg/ml), and 800 μL of CM was added in the lower chamber. After 48 h, the cells that had invaded the lower side of the membrane were stained with Crystal Violet. At least five randomly chosen images were taken, and the average number of stained cells was determined.

[6] = tested on: 4T1.2 mouse mammary tumor cells; experiment: Tumor selectivity from MTT-based viability (tumor vs non-tumor cells); type: cell-based
From the text: as §4

[7] = tested on: EO771 mammary tumor cells; experiment: as above; type: cell-based, mouse; details: tumor cells EO
From the text: as §4

4T1.2 cells [8] = experiment: EdU assay; type: cell-based, mouse
Protocol: as §3

EO771 tumor cells = experiment: MTT-based viability; type: cell-based, mouse
[9] = tested on: TRAMP prostate tumor cells; experiment: TRANSWELL invasion assay; type: cell-based
Protocol: as §1

[10] = tested on: EO771 mammary tumor cells; experiment: Wound-healing scratch assay; type: cell-based, mouse; details: EO771 cells
Protocol: Two-dimensional motility assay. A wound-healing scratch motility assay was performed to measure 2-dimensional cell motility. Cells were seeded in 12-well plates, after cell attachment, a plastic pipette tip was used to scratch a gap on the cell layer. Images of the cell-free scratch zone were obtained via an inverted microscope at 0 h, and the areas newly occupied with cells were determined 48 h after scratching. The areas were quantified with Image J (National Institutes of Health, Maryland, USA).
Scratch assay. A wound-healing scratch assay was conducted to evaluate 2-dimensional migratory behavior. Approximately 4×10^5 cells were seeded in 12-well plates. After cell attachment, a plastic pipette tip was used to scratch a gap on the cell layer. After the removal of the floating cells, CM was added. Images of the cell-free scratch zone were collected at 0 h, and the areas newly occupied with cells were determined 24-48 h after scratching. The areas were quantified with IMAGE J™ (National Institutes of Health, Bethesda, MD, USA).

[11] = tested on: PANC-1 pancreatic tumor cells; experiment: TRANSWELL invasion assay; type: cell-based, human; details: PANC-1 cells
Protocol: as §1

EO771 cells = experiment: Western blot analysis; type: cell-based, mouse
Protocol: Western blot analysis. Cultured cells were lysed in a radio-immunoprecipitation assay buffer with protease inhibitors (Santa Cruz Biotechnology, Santa Cruz, CA, USA) and phosphatase inhibitors (Calbiochem, Billerica, MA, USA). After cell lysis, proteins were fractionated by 10-15% SDS gels and electro-transferred to polyvinylidene difluoride (“PVDF”) transfer membranes (Millipore, Billerica, MA, USA). After blocking 1 h with a blocking buffer (Bio-Rad), the membrane was incubated overnight with primary antibodies and then with secondary antibodies conjugated with horseradish peroxidase for 45 min (Cell Signaling, Danvers, MA, USA). Antibodies against β-catenin, cleaved-caspase 3, Runx2, Snail, Enolase-1 (Cell Signaling, Danvers, MA, USA), MMP9 (Santa Cruz, Dallas, TX, USA), TRAIL (Novus, Centennial, CO, USA), p53 (Invitrogen, Carlsbad, CA, USA), and β-actin as a control (Sigma, St. Louis, MO, USA), were employed. The level of proteins was determined using a SUPERSIGNAL™ west femto maximum sensitivity substrate (Thermo Scientific, Waltham, MA, USA), and a luminescent image analyzer (LAS-3000, Fuji Film, Tokyo, Japan) was used to quantify signal intensities.

[12] = tested on: PANC-1 pancreatic tumor cells; experiment: EdU assay; type: cell-based, human; details: PANC-1 cells, EdU-based
Protocol: as §2

[13] = tested on: TRAMP prostate tumor cells; experiment: EdU assay; type: cell-based; details: EdU-based
Protocol: as §2

Molecule | MTT-based viability of non-tumor cells (adipose-derived MSCs) | Tumor selectivity ([3]; non-tumor cells A5) | Tumor selectivity ([3]; non-tumor cells MSC) | level of Kdm3a (4T1.2 cells [4]) | Lrp5, MMP9, Runx2, TGFβ, and Snail (4T1.2 cells [4]) | TRANSWELL invasion (4T1.2 cells [5]) | Tumor selectivity ([6]; non-tumor cells A5) | Tumor selectivity ([6]; non-tumor cells MSC) | Tumor selectivity ([7]; non-tumor cells A5) | Tumor selectivity ([7]; non-tumor cells MSC) | EdU-based proliferation (4T1.2 cells [8]) | other results
Nc1cccc2c1C(=O)N(C1CCC(=O)NC1=O)C2=O (centres unmarked) [Pomalidomide] |  |  |  |  |  |  |  |  |  |  |  | inhibitory effect of β-catenin-overexpressing iTS CM on invasion [1]: interfered with the inhibitory effect; inhibitory effect of β-catenin-overexpressing iTS CM on proliferation [2]: interfered with the inhibitory effect
Hsp90ab1: heat shock protein 90 alpha family class B member 1 recombinant protein | elevated | 1.02 | 1.74 | reduced | downregulated | reduced | 1.68 | 2.86 | 1.55 | 2.65 |  | 
B1 |  | 1.13 | 1.43 | reduced | downregulated | reduced | 0.99 | 1.57 | 0.67 | 0.89 | reduced | Tumor selectivity ([3]; non-tumor cells Adipose): 1.88; Tumor selectivity ([6]; non-tumor cells Adipose): 1.43; Tumor selectivity ([7]; non-tumor cells Adipose): 1.27
B2 | elevated | 3.11 | 6.94 | reduced | downregulated | reduced | 1.48 | 3.30 | 3.29 | 7.34 | reduced | MTT-based viability (EO771 tumor cells): significant decrease; invasion [9]: inhibited; scratch-based migration [10]: inhibited; invasion [11]: inhibited; expression of MMP9, Runx2, and Snail (EO771 cells): reduced; expression of p53 and TRAIL (EO771 cells): elevated; proliferation [12]: inhibited; proliferation [13]: inhibited
